Two substances from publication PMC4039619 can be followed below.

Test [1] addresses human proinsulin (human). The experiment in a line: ELISA. Background: An ELISA detects its analyte on a solid surface through an enzyme-linked reagent.
In test [2] the target is insulin from porcine pancreas (porcine). Kind of test: ELISA.
The target of test [3] is recombinant human IGF-II (human). The experiment in a line: ELISA.
Test [4] deals with insulin from porcine pancreas (porcine).

Read-outs that look alike come from different tables or passages of the source.

human recombinant decorin protein core, sequence (P07585 31-359): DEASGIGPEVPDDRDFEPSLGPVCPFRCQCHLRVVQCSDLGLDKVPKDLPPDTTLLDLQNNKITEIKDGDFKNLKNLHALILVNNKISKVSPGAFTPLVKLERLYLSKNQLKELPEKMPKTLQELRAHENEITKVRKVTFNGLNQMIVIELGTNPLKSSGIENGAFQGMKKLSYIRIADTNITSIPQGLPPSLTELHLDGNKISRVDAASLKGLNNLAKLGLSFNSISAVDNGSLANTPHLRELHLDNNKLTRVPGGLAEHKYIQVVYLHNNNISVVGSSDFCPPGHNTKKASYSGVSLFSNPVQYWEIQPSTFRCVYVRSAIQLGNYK
insulin from porcine pancreas (porcine), sequence (P01315 25-54, chain 1 of 2): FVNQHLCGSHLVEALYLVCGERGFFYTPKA
insulin from porcine pancreas (porcine), sequence (P01315 88-108, chain 2 of 2): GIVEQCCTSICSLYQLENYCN
recombinant human IGF-II (human), sequence (P01344 25-91): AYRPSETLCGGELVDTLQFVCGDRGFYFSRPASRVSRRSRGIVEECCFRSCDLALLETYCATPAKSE
decorin proteoglycan, sequence (P07585 31-359): as the sequence (P07585 31-359) above

In general, Kd refers to a measure of binding affinity in units of concentration. Regarding “human recombinant decorin protein core (from UniProt P07585 31-359) (natural protein)”, the Kd turned out to be 9.3 nM in test [1], 3.1 nM in test [2] and 1.5 nM in test [3].

“decorin proteoglycan (from UniProt P07585 31-359) (natural protein)” returned a Kd in test [4] of 13.4 nM.
